Tests used:
[1] = biological target: T1, human programmed cell death protein 1 (hPD-1) C93S (aa 24-167) (Homo sapiens, UniProt Q15116, C93S); experiment: SPR; Carterra LSA; Fab from the ammonium sulfate precipitate of the culture supernatant immobilised on a NiHC200M chip; hPD-1 (1-1024 nM) or mPD-1-Fc (4-1024 nM) as analyte, fourfold dilution series, no regeneration; HBS-EP pH 7.4, 25 °C; medians over the spots of a construct, KD = koff/kon; conditions: one partner purified
T1 construct: made as a fusion with a TEV site and human Fc; the Fc was cut off with TEV protease; source: Expi293F, purified (Protein A, TEV cleavage of Fc, SEC; monomer fractions); not shown: Fc (human), C-terminal, cleaved
Method in brief: (§1)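 Fabs from Brevibacillus culture supernatants were ammonium sulfate-precipitated, redissolved in HBS-EP and captured in duplicate on a NiHC200M chip (Carterra LSA, 25 °C). Human PD-1 (1–1024 nM) or mouse PD-1-Fc (4–1024 nM) flowed as fourfold series without regeneration, with 10 min association and 5 min dissociation; unconfirmed binders were set to kon 10^3 […], koff 10^−2 s^−1. Rates came from kdka model fits (slow- or fast-dissociation settings, best fit); KD is koff/kon from per-construct medians.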

[2] = biological target: T2, mouse programmed cell death protein 1 Fc fusion protein (mPD-1-Fc), mPD-1 C60S (aa 25-167) (Mus musculus, UniProt Q02242, stabilised); experiment: as above; conditions: one partner purified
T2 construct: not cleaved; source: Expi293F, purified (Protein A, SEC; dimeric fraction); not shown: Fc (human), C-terminal, kept
Method in brief: as §1

T1 sequence (Q15116 24-167 C93S): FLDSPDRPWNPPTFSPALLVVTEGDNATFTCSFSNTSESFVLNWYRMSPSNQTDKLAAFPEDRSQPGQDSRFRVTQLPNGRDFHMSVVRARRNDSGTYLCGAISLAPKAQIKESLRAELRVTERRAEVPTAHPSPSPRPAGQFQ

B1: toripalimab Fab L.L101M (Fab, V domains shown)
VH: QGQLVQSGAEVKKPGASVKVSCKASGYTFTDYEMHWVRQAPIHGLEWIGVIESETGGTAYNQKFKGRVTITADKSTSTAYMELSSLRSEDTAVYYCAREGITTVATTYYWYFDVWGQGTTVTVSS
VL: DVVMTQSPLSLPVTLGQPASISCRSSQSIVHSNGNTYLEWYLQKPGQSPQLLIYKVSNRFSGVPDRFSGSGSGTDFTLKISRVEAEDVGVYYCFQGSHVPMTFGQGTKLEIK
notes: as the heavy chain of Sm3; light chain of Sm3 with this change; numbers count from the chain's first residue; source: Brevibacillus, culture supernatant (ammonium sulfate precipitate); not shown: 6xHis, C-terminal, kept; 6xHN, C-terminal, kept
Binder B1 has a Kd [1] of under 1.08 nM, a koff [1] of under 1e-05 s⁻¹ and a kon [1] of 9290 M⁻¹ s⁻¹. It also gave a Kd [2] of 24.5 nM, a koff [2] of 0.000673 s⁻¹ and a kon [2] of 27500 M⁻¹ s⁻¹.

B2: toripalimab Fab L.L101K (Fab, V domains shown)
VH: QGQLVQSGAEVKKPGASVKVSCKASGYTFTDYEMHWVRQAPIHGLEWIGVIESETGGTAYNQKFKGRVTITADKSTSTAYMELSSLRSEDTAVYYCAREGITTVATTYYWYFDVWGQGTTVTVSS
VL: DVVMTQSPLSLPVTLGQPASISCRSSQSIVHSNGNTYLEWYLQKPGQSPQLLIYKVSNRFSGVPDRFSGSGSGTDFTLKISRVEAEDVGVYYCFQGSHVPKTFGQGTKLEIK
notes: as for B1
B2 gave a Kd [1] of 492 nM, a koff [1] of 0.00276 s⁻¹ and a kon [1] of 5600 M⁻¹ s⁻¹. The Kd [2] was 606 nM, the koff [2] was 0.0212 s⁻¹ and the kon [2] was 35000 M⁻¹ s⁻¹.

B3: toripalimab Fab L.T102Y (Fab, V domains shown)
VH: QGQLVQSGAEVKKPGASVKVSCKASGYTFTDYEMHWVRQAPIHGLEWIGVIESETGGTAYNQKFKGRVTITADKSTSTAYMELSSLRSEDTAVYYCAREGITTVATTYYWYFDVWGQGTTVTVSS
VL: DVVMTQSPLSLPVTLGQPASISCRSSQSIVHSNGNTYLEWYLQKPGQSPQLLIYKVSNRFSGVPDRFSGSGSGTDFTLKISRVEAEDVGVYYCFQGSHVPLYFGQGTKLEIK
notes: as for B1
Binder B3 has a Kd [1] of under 0.441 nM, a koff [1] of under 1e-05 s⁻¹ and a kon [1] of 22700 M⁻¹ s⁻¹. It also gave a Kd [2] of 78.4 nM, a koff [2] of 0.00282 s⁻¹ and a kon [2] of 36000 M⁻¹ s⁻¹.

B4: toripalimab Fab L.L101T (Fab, V domains shown)
VH: QGQLVQSGAEVKKPGASVKVSCKASGYTFTDYEMHWVRQAPIHGLEWIGVIESETGGTAYNQKFKGRVTITADKSTSTAYMELSSLRSEDTAVYYCAREGITTVATTYYWYFDVWGQGTTVTVSS
VL: DVVMTQSPLSLPVTLGQPASISCRSSQSIVHSNGNTYLEWYLQKPGQSPQLLIYKVSNRFSGVPDRFSGSGSGTDFTLKISRVEAEDVGVYYCFQGSHVPTTFGQGTKLEIK
notes: as for B1
Work on B4 yielded a Kd [1] of 5.05 nM, a koff [1] of 3.03e-05 s⁻¹ and a kon [1] of 6000 M⁻¹ s⁻¹. The Kd [2] was 116 nM, the koff [2] was 0.00235 s⁻¹ and the kon [2] was 20400 M⁻¹ s⁻¹.

B5: toripalimab Fab L.L101V (Fab, V domains shown)
VH: QGQLVQSGAEVKKPGASVKVSCKASGYTFTDYEMHWVRQAPIHGLEWIGVIESETGGTAYNQKFKGRVTITADKSTSTAYMELSSLRSEDTAVYYCAREGITTVATTYYWYFDVWGQGTTVTVSS
VL: DVVMTQSPLSLPVTLGQPASISCRSSQSIVHSNGNTYLEWYLQKPGQSPQLLIYKVSNRFSGVPDRFSGSGSGTDFTLKISRVEAEDVGVYYCFQGSHVPVTFGQGTKLEIK
notes: as for B1
In the case of B5, the Kd [1] is reported as 2.41 nM, the koff [1] is reported as 1.35e-05 s⁻¹ and the kon [1] is reported as 5600 M⁻¹ s⁻¹. For the same binder, the Kd [2] was 90.5 nM, the koff [2] was 0.00146 s⁻¹ and the kon [2] was 16100 M⁻¹ s⁻¹.

B6: toripalimab Fab L.L101Y (Fab, V domains shown)
VH: QGQLVQSGAEVKKPGASVKVSCKASGYTFTDYEMHWVRQAPIHGLEWIGVIESETGGTAYNQKFKGRVTITADKSTSTAYMELSSLRSEDTAVYYCAREGITTVATTYYWYFDVWGQGTTVTVSS
VL: DVVMTQSPLSLPVTLGQPASISCRSSQSIVHSNGNTYLEWYLQKPGQSPQLLIYKVSNRFSGVPDRFSGSGSGTDFTLKISRVEAEDVGVYYCFQGSHVPYTFGQGTKLEIK
notes: as for B1
B6 showed a Kd [1] of under 1.18 nM, a koff [1] of under 1e-05 s⁻¹ and a kon [1] of 8500 M⁻¹ s⁻¹. For the same binder, the Kd [2] was 125 nM, the koff [2] was 0.00356 s⁻¹ and the kon [2] was 28400 M⁻¹ s⁻¹.

B7: toripalimab Fab L.L101N (Fab, V domains shown)
VH: QGQLVQSGAEVKKPGASVKVSCKASGYTFTDYEMHWVRQAPIHGLEWIGVIESETGGTAYNQKFKGRVTITADKSTSTAYMELSSLRSEDTAVYYCAREGITTVATTYYWYFDVWGQGTTVTVSS
VL: DVVMTQSPLSLPVTLGQPASISCRSSQSIVHSNGNTYLEWYLQKPGQSPQLLIYKVSNRFSGVPDRFSGSGSGTDFTLKISRVEAEDVGVYYCFQGSHVPNTFGQGTKLEIK
notes: as for B1
B7 was tested, and the Kd [1] was under 1.23 nM, the koff [1] was under 1e-05 s⁻¹ and the kon [1] was 8160 M⁻¹ s⁻¹. It also gave a Kd [2] of 134 nM, a koff [2] of 0.00447 s⁻¹ and a kon [2] of 33300 M⁻¹ s⁻¹.

Source: PMC10663500, “High-throughput analysis system of interaction kinetics for data-driven antibody design” (Scientific Reports, 2023)
